Results reported in paper PMC9119445, “Ustilago maydis telomere protein Pot1 harbors an extra N-terminal OB fold and regulates homology-directed DNA repair factors in a dichotomous and context-dependent manner”.

Columns and labels:
[1] = target: Ustilago maydis Rad51 (U. maydis) (UniProt Q99133)
[2] = target: UmPot1 N-terminal fragment (OB-N) (Ustilago maydis, UniProt A0A0D1CUA9 1-350); test: EMSA; 25 mM HEPES-KOH pH 7.5, 5% glycerol, 3 mM MgCl2, 0.1 mM EDTA, 1 mM DTT, 0.5 ug/ul BSA, 1-10 nM probe, 22 C, 15 min; 6% native PAGE in 1x TBE; settings: protein: recombinant; tags: C-terminal FLAG; His6-SUMO removed by ULP1; label: 5'-32P
[3] = target: UmPot1 OB3 (Ustilago maydis, UniProt A0A0D1CUA9 701-1050); test: as above; settings: protein: recombinant; tags: C-terminal FLAG; His6-SUMO removed by ULP1; label: 5'-32P
[4] = target: UmPot1 OB12 (OB1-OB2) (Ustilago maydis, UniProt A0A0D1CUA9 351-700); test: as above; settings: protein: recombinant; tags: C-terminal FLAG; His6-SUMO removed by ULP1; label: 5'-32P

Ustilago maydis Rad51 (U. maydis), sequence (Q99133 whole entry, the tested form may be a part): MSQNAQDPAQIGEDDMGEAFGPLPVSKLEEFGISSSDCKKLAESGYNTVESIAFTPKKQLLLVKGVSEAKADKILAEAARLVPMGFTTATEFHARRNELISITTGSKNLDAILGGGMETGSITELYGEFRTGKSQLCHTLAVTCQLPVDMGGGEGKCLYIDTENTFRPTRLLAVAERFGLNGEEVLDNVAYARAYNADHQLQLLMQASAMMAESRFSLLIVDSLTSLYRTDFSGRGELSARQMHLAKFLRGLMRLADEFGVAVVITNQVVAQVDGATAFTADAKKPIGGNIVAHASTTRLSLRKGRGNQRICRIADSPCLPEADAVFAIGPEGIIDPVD

| Molecule | strand exchange activity of Rad51 (oligonucleotide-based assay, 70-mer ssDNA and labeled 39-mer dsDNA), stimulation by Pot1 [1] [fold] | binding result [2] | binding result [3] | binding result [4] |
| --- | --- | --- | --- | --- |
| Ustilago maydis Pot1 with a C-terminal FLAG tag (Pot1-FLAG) (natural protein) | 2 |  |  |  |
| TTAGGGTTAGGGTTAGGGTTAGGG (ssDNA) [TTAGGG4 (G4)] |  | no binding | no binding | binds |
